According to the DeepSol protein solubility set:

assay: soluble on expression in E. coli; label from the status in PepcDB or PDB records

| Sequence | soluble on expression in E. coli |
| --- | --- |
| MARKNLIGISESPLAPEDGERPAVGRPIAGLAPAQRSTGLVGGITRSLSNITQKVERAEELERQLADGHAIVELDPELIDSSFIIDRLGVAPDVQAMLVQQIRDHGQQVPILVRPHPAESGRYQVAYGHRRLAALREIGIKVKAVIRNLNDEQLVISQGQENNARTDLSFIERALFATRLEDRGFSRDTIMSALGVDKAALSKMIAVVRRLPLDIIEAIGAAPGFGRRRWMELADLIDRDDRRPKALHFIETAAFKALESDQRFEKLFALLSLARKPSKAETWIAPDRSRPVRIRETDAETTLAFSKKAAPGFAEFVRQRLEALYLEYQRETGD | not soluble |
| MARPQSKKKQTQIVRRSRPRGRLVPPGRLIAGRDFPEFLQQAVLLSGSLRQAARKLRVSYSTLRGWLGRRCEEPPEAERDLLAEHAAAIRAELDAASEHLATVRGQLDVLEHGE | not soluble |
| MARQLRAEQTRATIIGAAADLFDRRGYESTTLSEIVAHAGVTKGALYFHFAAKEDLAHAILEIQSRTSRRLAKDLDGRGYSSLEALMRLTFGMARLCVQGPVLRAGLRLATAGVPVRPPLPHPFTEWREIATSRLLDAVRQSDVHQDIDVDSVAHTLVCSVVGTRVVGGTLEPAGREPRRLAEMWYILIRGMVPVTRRARYVTLAARLEQETGTA | soluble |
| MARQSSSLKSFIYKDECYFYSKKCIKTLRLRLNEKGEFVLSIPYFCTFKSVYEFLDKSSSWMNEAKKRFEKKVLKDDELIFLAKKYKIIFDENTKKTYFDKDKIICQNKAKLDLFLRQNAKKIFTFYLKKWSQKTGLFYTHLSIKNMKTRWGSCNHNKAYVNLNLKLIQKSLRAIEYVILHEISHLKFPNHSKEFYTFIEHFMSDFRQREKEFLSLEHHHHHH | soluble |
| MARRQTSSNGAGETRENLLRLAARIFSAQGYSGTTMRSIAQQAGIETASIYYHFPSKEDLVDEVMEIGATAIIQHMTERIEALGDGATAEERFRAAVLGQMAGMVKHGEYTLASSSLIEQLPEKVRERQSKRRESYQKLWAGLLEDLRAEGRLRSDVDLHLARMFILGSVQSIRYWFNPRKGSLEKVAAQLCDLFFEGVGQRG | soluble |
| MASMTGGQQMGRGSDYFEPQQQQQQQQQQPQGASTPKVFVGYSIYKGKAALTVEPRSPEFSPLDSGAFKLSREGMVMLQFAPAAGVRQYDWSRKQVFSLSVTEIGSIISLGTKDSCEFFHDPNKGRSDEGRVRKVLKVEPLPDGSGHFFNLSVQNKLINLDENIYIPVTKAEFAVLVSAFNFVMPYLLGWHTAVNSFKPEDASRSNNANPRSGAELEWNLEHHHHHH | soluble |
| MASNSSSCPTPGGGHLNGYPVPPYAFFFPPMLGGLSPPGALTTLQHQLPVSGYSTPSPATIETQSSSSEEIVPSPPSPPPLPRIYKPCFVCQDKSSGYHYGVSACEGCKGFFRRSIQKNMVYTCHRDKNCIINKVTRNRCQYCRLQKCFEVGMSKESVRNDRNKKKKEVPKPECSESYTLTPEVGELIEKVRKAHQETFPALCQLGKYTTNNSSEQRVSLDIDLWDKFSELSTKCIIKTVEFAKQLPGFTTLTIADQITLLKAACLDILILRICTRYTPEQDTMTFSDGLTLNRTQMHNAGFGPLTDLVFAFANQLLPLEMDDAETGLLSAICLICGDRQDLEQPDRVDMLQEPLLEALKVYVRKRRPSRPHMFPKMLMKITDLRSISAKGAERVITLKMEIPGSMPPLIQEMLENSEGLDTLSGQPGGGGRDGGGLAPPPGSCSPSLSPSSNRSSPATHSP | soluble |
| MASPELAEKLKKRLDGTDQEPETNPHQAPPPAPVIPQKIVENPYIPSVDTSIDDLIFKALEKKEENNNNNNNNNSNSTTTTPLEIKTERNQQHEHTTIDPRSPPPKRSILELLEQERLENELQQQSAPVPKTPVMVITKGAFPRSASPRRQQFVRENEDGNELEKRLAAQRMKKYTEEMESLVQKQVDVLDQIMSSPPPPPTSPPQLPPTPPARITSVRSDESIEEEERRRKESEETASFEELEAEIMRISRSPVPPPVLSIPPPPPPNIPLPTIPQEVQSPPSPRPTSVPPPIPSPGPSEDVNMDELIESFSDSVIFNNSMSPPPPLPPLRESSLETLEVTPEDPVTESKVEASPTPLPKATESLNESSIKALEGLEVKALEAQEASDDRPSAPTPIRDSSLPPPPPPKPETPLAIRRAGPIPTPQLLEMIHQEDCSIRPSSPTSVSHGSRPQSPAVPKKPSVTVSPLGLLCDPNLSIEKPEEMKTEDTKPVETAPAPVDEAELNDALDRRNKINEATCLTKIFPSLARMFR | not soluble |
| MASPHQEPKPGDLIEIFRLGYEHWALYIGDGYVIHLAPPSEYPGAGSSSVFSVLSNSAEVKRERLEDVVGGCCYRVNNSLDHEYQPRPVEVIISSAKEMVGQKMKYSIVSRNCEHFVTQLRYGKSRCKQVEKAKVEVGVATALGILVVAGCSFAIRRYQKKATALEHHHHHH | not soluble |
| MASPSASADDVKLTADGKICLDDPAEFLKRKPKKSILKMKQDSSLEGKDGRAHFDEMNILATYHPTDKDYGSMKIDEPKTPYHHSDGESECDEGVLGVPTTRPRRVSLGNAIDPEKVAEGLAHPESGKSLSSAEDSEDEADLTEEQRAHRRDFEKKRRAHYNEGAALKHHPELEDDEEEATAAAAGAGGNMEH | not soluble |
| MASSKIVPLYQSMLNDLIRQIESGELVENAKLPSEQKLGEKYDVSRITVRRALAELENKDYIYKKQGQGSFVKNKEDIDLGIHYLDVRKAIENMNAVPEIRLEAFKLIVDGSESDVRKVMEINSDVYLYYLRYMVYADHRPVFHEQVYLPFERFPRIFNSEIVNNDLMPFLVKKYGLKASFFSHTQPALITKSNRKEFDLNVGDPMIYMQTRGIEEKEIIYYRKAAVVGNLIMYIVG | not soluble |
| MASSSLIMGNNMHVKYLAGIVGAALLMAGCSSSNELSAAGQSVRIVDEQPGAECQLIGTATGKQSNWLSGQHGEEGGSMRGAANDLRNQAAAMGGNVIYGISSPSQGMLSSFVPTDSQIIGQVYKCPNLEHHHHHH | not soluble |
| MASSYSASAEPARVRALVYGHHGDPAKVVELKNLELAAVRGSDVRVKMLAAPINPSDINMIQGNYGLLPELPAVGGNEGVAQVVAVGSNVTGLKPGDWVIPANAGLGTWRTEAVFSEEALIQVPSDIPLQSAATLGVNPCTAYRMLMDFEQLQPGDSVIQNASNSGVGQAVIQIAAALGLRTINVVRDRPDIQKLSDRLKSLGAEHVITEEELRRPEMKNFFKDMPQPRLALNCVGGKSSTELLRQLARGGTMVTYGGMAKQPVVASVSLLIFKDLKLRGFWLSQWKKDHSPDQFKELILTLCDLIRRGQLTAPACSQVPLQDYQSALEASMKPFISSKQILTM | soluble |
| MASTAAETEKPEDHNDLVQLCNPHIAAMKEDILYHFSLSTSTHDFPAMFGDVKFVCVGGSPSRMKAFIKYVAMELGFAHPGADYPNICEGTDRYAMFKVGPVLSVSHGMGVPSIAIMLHELIKLLYHAHCSGVTLIRIGTSGGIGLEPGSVVITRQAVDPCFKPEFEQIVLGKREVRNTDLDEQLVQELARCSAELGEFPTVVGNTMCTLDFYEGQGRLDGALCSYTEKDKQDYLRAAYAAGIRNIEMEASVFAAMCNACGLRAAVVCVTLLNRLEGDQISSPHDVLAEYQQRPQRLVGQFIKKRLMQA | soluble |
| MASYKQNLPPSALIKQQVNVADKKSKAEVQRDRQLEEDRKAGTAPAMVDVQTGRDINPHIPMFISQNPWYVPSEGPTLKHQRPHEEREKKMTQIHEWYQKGTTGKSATKFRKGACENCGAMGHQKRDCFDRPRKSNAKETNDNIAEDDYVQPNLTLGFDAKRDRWNGYDPSTHKQVIEDYEHLEEARKVVREHEMKEGEVEPATTEDGAPKDEDMYAEDADMAGVSVDMDSRTRITVRNLRIREDTAKYLYNLAENSPYYDPKSRSMRENPFAGVAGKELEAARFSGDNFVRYSGEVTAANEAQVFAWQATRGGVYAHSIAEPTKLEALKKEYEKEKSTLKNETQKELLDKYGGGEHMERPADELLLAQTESYIEYNRKGKVIKGKEKVAISSRFKEDIYPQNHTSVFGSFWREGRWGYKCCHQFVKNSYCTGKQGIEAETSAAKGTTTSNEEIFKVPKLVEKTEVKEEKEKEDSIKDEVAEENSDNDNDEEKEKVSEKSISPSPPSDDEEKEKEREKERLIEKERRERDQRRRDKKREKRERKKAKLGKRKRRHRDSDDESDPSSGSGSESDSDEEMRKAMKKAKREKAEGMKAAREGDRGRKYNTDYSNTAPNEKEMEAYRVTSVHSADPMAAYMNSKFEKKHTK | not soluble |
| MATDHIRYDVLARDALRGVLRHVLTDVAQHGLPGEHHFFITFQSKGDGVKLSPRLLAQYPEEMTVVLQHQFWDLVVTEDRFEVGLSFGGIPERLVVPFASIKSFFDPSVKFGLQFEAADEVDETGEADDGTELVTAAPAPVALPTSSATTDSSAPSDDEPPRSGEGAEVVRLDRFRKKLEHHHHHH | soluble |
| MATEAPTQSYSEQWYWDDRYKNESEPFDWYQKYSPLAPLINLYVPQRNQRVLVIGCGNSAFSEGMVDDGYEDVVSIDISSVVIDTMIKKYSDRPQLKYLKMDVRDMKAFEDASFDAVIDKGTLDSILCGSNSRQYSTQMLEEVWRVLKDKGVYILITYGAPIYRLRLFKESCSWTTKLHVIDKSLTDQPLDTPKWELTKPLPLDADGSSVESAIGKNPDVHYIYVCIKDESSKMEADAA | soluble |
| MATESGSDSQLRRRRRRDPEGSEKTELSEREPALAVAGSEENDDENEERWVGPLPVEATLAKKRKVLEFERVYLDNLPSASMYERSYMHRDVITHVVCTKTDFIITASHDGHVKFWKKIEEGIEFVKHFRSHLGVIESIAVSSEGALFCSVGDDKAMKVFDVVNFDMINMLKLGYFPGQCEWIYCPGDAISSVAASEKSTGKIFIYDGRGDNQPLHIFDKLHVSPLTQIRLNPVYKAVVSSDKSGMIEYWTGPPHEYKFPKNVNWEYKTDTDLYEFAKCKAYPTSICFSPDGKKIATIGSDRKVRIFRFLTGKLMRVFDESLSMFTELQQMRQQLPDMEFGRRMAVERELEKVDAVRLVNIVFDETGHFVLYGTMLGIKVINVEPNRCVRILGKQENIRVMQLALFQGIAKKHRAAATIEMKASENPVLQNIQADPTIVCTSFKKNRFYMFTKRETEDTKTADSDRDVFNEKPSKEEVMAATQAEGPKRVSDSAIVHTSMGDIHIKLFPVECPKTVENFCVHSRNGYYNGHTFHRIIKGFMIQTGDPTGTGMGGESIWGGEFEDEFHSTLRHDRPYTLSMANAGSNTNGSQFFITVVPTPWLDNKHTVFGRVSKGMEVVQRIFNVKVNPQTDKPYEDVSIINITVK | soluble |
| MATESSSPSSVRKVVVHLRATGGAPILKQSKFKIPGTDKFAKVIDFLRRQLHSDSLFVYVNSAFSPNPDESVIDLYNNFGFDGKLVVNYACSMAWG | not soluble |
